{"source": "patent US20140056902A1", "about": "(Kyowa Kirin, published 2014)"}
{"molecular_target": "T1, human mature dimer BMP9 recombinant protein (manufactured by R&D systems, Cat#3209-BP) (human, UniProt Q9UK05 320-429)", "T1 construct": "Bought protein; also called human BMP9; human BMP9 recombinant protein (manufactured by R&D systems)", "T1 sequence": "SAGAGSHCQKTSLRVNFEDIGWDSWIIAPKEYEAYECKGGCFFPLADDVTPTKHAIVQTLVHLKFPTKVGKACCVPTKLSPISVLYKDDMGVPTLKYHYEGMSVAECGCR", "assay": "SPR (Biacore T100), antibody captured on anti-human IgG, human BMP9 (R&D 3209-BP) as analyte, 5 concentrations from 1 nM", "procedure": "For the purpose of comparing binding activity to human BMP9 between c10D5-2-3 antibody and 22 types of 10D5-2-3 antibody-humanized antibodies obtained in Example 22-7, binding activity to human BMP9 recombinant protein (manufactured by R&D systems) was measured by surface plasmon resonance (SPR) using a BiacoreT100 instrument (manufactured by GE Healthcare bioscience).\nAnti-human IgG antibody was immobilized onto a CM5 sensor chip (manufactured by GE Healthcare bioscience) using a Human Antibody Capture Kit (manufactured by GE Healthcare bioscience) in accordance with the accompanying protocol. 0.4 μg/mL of c10D5-2-3 antibody or each humanized antibody was applied to the flow cell onto which anti-human IgG antibody was immobilized, at a flow rate of 10 μL/min for 2 minutes.\nSubsequently, human BMP9 recombinant protein (manufactured by R&D systems, Cat#3209-BP) was subjected to 2-fold serial dilution starting from […] to give 5 concentrations, and applied at a flow rate of 10 μL/min, and association was monitored over 3 minutes and dissociation over 3 minutes at a flow of 10 μL/min. The sensorgram thus obtained was analyzed by BiaEvaluation Software (manufactured by GE Healthcare bioscience) to calculate the rate constant of each antibody.", "units": {"Kd": "pM", "koff": "s⁻¹", "kon": "M⁻¹ s⁻¹"}}
{"binder": "10D5-2-3 antibody-humanized antibody HV3LV2 (antibody, V domains shown, Expressed from pKANTEX93) VH: EVQLVESGGGLVQPGGSLRLSCAASGFTFSNYWMNWVRQAPGKGLEWVAHIRLKSDNYATHYAESVRGRFTISRDDSKNSLYLQMNSLKTEDTAVYYCTGGSNYVFAFWGQGTLVTVSS VL: DIVMTQSPDSLAVSLGERATINCRASESVDNYGISFMNWFQQKPGQPPKLLIYAASNQGSGVPDRFSGSGSGTDFTLTISSLQAEDVAVYFCQQSKEVPWTFGQGTKLEIK", "Kd": 11.6, "koff": 0.000596, "kon": "5.12e+07"}
{"binder": "10D5-2-3 antibody-humanized antibody HV3LV0 (antibody, V domains shown, Expressed from pKANTEX93) VH: EVQLVESGGGLVQPGGSLRLSCAASGFTFSNYWMNWVRQAPGKGLEWVAHIRLKSDNYATHYAESVRGRFTISRDDSKNSLYLQMNSLKTEDTAVYYCTGGSNYVFAFWGQGTLVTVSS VL: DIVMTQSPDSLAVSLGERATINCRASESVDNYGISFMNWYQQKPGQPPKLLIYAASNQGSGVPDRFSGSGSGTDFTLTISSLQAEDVAVYYCQQSKEVPWTFGQGTKLEIK", "Kd": 11.4, "koff": 0.00172, "kon": "1.51e+08"}
{"binder": "10D5-2-3 antibody-humanized antibody HV3LV3 (antibody, V domains shown, Expressed from pKANTEX93) VH: EVQLVESGGGLVQPGGSLRLSCAASGFTFSNYWMNWVRQAPGKGLEWVAHIRLKSDNYATHYAESVRGRFTISRDDSKNSLYLQMNSLKTEDTAVYYCTGGSNYVFAFWGQGTLVTVSS VL: DIVMTQSPDSLAVSLGERATINCRASESVDNYGISFMNWFQQKPGQPPKLLIYAASNQGSGVPDRFSGSGSGTDFTLTISPLQAEDVAVYFCQQSKEVPWTFGQGTKLEIK", "Kd": 9.49, "koff": 0.000516, "kon": "5.43e+07"}
{"binder": "10D5-2-3 antibody-humanized antibody HV3LV6 (antibody, V domains shown, Expressed from pKANTEX93) VH: EVQLVESGGGLVQPGGSLRLSCAASGFTFSNYWMNWVRQAPGKGLEWVAHIRLKSDNYATHYAESVRGRFTISRDDSKNSLYLQMNSLKTEDTAVYYCTGGSNYVFAFWGQGTLVTVSS VL: not shown", "Kd": 11.9, "koff": 0.000555, "kon": "4.67e+07"}
{"binder": "10D5-2-3 antibody-humanized antibody HV4aLV0 (antibody, V domains shown, Expressed from pKANTEX93) VH: EVQLVESRGGLVQPGGSMRLSCAASGFTFSNYWMNWVRQAPGKGLEWVGHIRLKSDNYATHYAESVRGRFTISRDDSKSSLYLQMNSLKTEDTAVYYCAGGSNYVFAFWGQGTLVTVSS VL: DIVMTQSPDSLAVSLGERATINCRASESVDNYGISFMNWYQQKPGQPPKLLIYAASNQGSGVPDRFSGSGSGTDFTLTISSLQAEDVAVYYCQQSKEVPWTFGQGTKLEIK", "Kd": 9.24, "koff": 0.00145, "kon": "1.57e+08"}
{"binder": "10D5-2-3 antibody-humanized antibody HV4bLV0 (antibody, V domains shown, Expressed from pKANTEX93) VH: EVQLVESGGGLVQPGGSLRLSCAASGFTFSNYWMNWVRQAPGKGLEWVAHIRLKSDNYATHYAESVRGRFTISRDDSKNSLYLQMNSLKTEDTAIYYCTGGSNYVFAFWGQGTLVTVSS VL: DIVMTQSPDSLAVSLGERATINCRASESVDNYGISFMNWYQQKPGQPPKLLIYAASNQGSGVPDRFSGSGSGTDFTLTISSLQAEDVAVYYCQQSKEVPWTFGQGTKLEIK", "Kd": 11.4, "koff": 0.00164, "kon": "1.44e+08"}
{"binder": "10D5-2-3 antibody-humanized antibody HV4bLV2 (antibody, V domains shown, Expressed from pKANTEX93) VH: EVQLVESGGGLVQPGGSLRLSCAASGFTFSNYWMNWVRQAPGKGLEWVAHIRLKSDNYATHYAESVRGRFTISRDDSKNSLYLQMNSLKTEDTAIYYCTGGSNYVFAFWGQGTLVTVSS VL: DIVMTQSPDSLAVSLGERATINCRASESVDNYGISFMNWFQQKPGQPPKLLIYAASNQGSGVPDRFSGSGSGTDFTLTISSLQAEDVAVYFCQQSKEVPWTFGQGTKLEIK", "Kd": 10.9, "koff": 0.000588, "kon": "5.39e+07"}
{"binder": "10D5-2-3 antibody-humanized antibody HV4bLV3 (antibody, V domains shown, Expressed from pKANTEX93) VH: EVQLVESGGGLVQPGGSLRLSCAASGFTFSNYWMNWVRQAPGKGLEWVAHIRLKSDNYATHYAESVRGRFTISRDDSKNSLYLQMNSLKTEDTAIYYCTGGSNYVFAFWGQGTLVTVSS VL: DIVMTQSPDSLAVSLGERATINCRASESVDNYGISFMNWFQQKPGQPPKLLIYAASNQGSGVPDRFSGSGSGTDFTLTISPLQAEDVAVYFCQQSKEVPWTFGQGTKLEIK", "Kd": 10.1, "koff": 0.000556, "kon": "5.5e+07"}
{"binder": "10D5-2-3 antibody-humanized antibody HV4bLV6 (antibody, V domains shown, Expressed from pKANTEX93) VH: EVQLVESGGGLVQPGGSLRLSCAASGFTFSNYWMNWVRQAPGKGLEWVAHIRLKSDNYATHYAESVRGRFTISRDDSKNSLYLQMNSLKTEDTAIYYCTGGSNYVFAFWGQGTLVTVSS VL: not shown", "Kd": 11.9, "koff": 0.000531, "kon": "4.46e+07"}
{"binder": "10D5-2-3 antibody-humanized antibody HV7aLV0 (antibody, V domains shown, Expressed from pKANTEX93) VH: EVQLVESRGGLVQPGGSMRLSCAASGFTFSNYWMNWVRQAPGKGLEWVAHIRLKSDNYATHYAESVRGRFTISRDDSKSSLYLQMNSLKTEDTGVYYCTGGSNYVFAFWGQGTLVTVSS VL: DIVMTQSPDSLAVSLGERATINCRASESVDNYGISFMNWYQQKPGQPPKLLIYAASNQGSGVPDRFSGSGSGTDFTLTISSLQAEDVAVYYCQQSKEVPWTFGQGTKLEIK", "Kd": 9.69, "koff": 0.00142, "kon": "1.47e+08"}
{"binder": "10D5-2-3 antibody-humanized antibody HV7aLV2 (antibody, V domains shown, Expressed from pKANTEX93) VH: EVQLVESRGGLVQPGGSMRLSCAASGFTFSNYWMNWVRQAPGKGLEWVAHIRLKSDNYATHYAESVRGRFTISRDDSKSSLYLQMNSLKTEDTGVYYCTGGSNYVFAFWGQGTLVTVSS VL: DIVMTQSPDSLAVSLGERATINCRASESVDNYGISFMNWFQQKPGQPPKLLIYAASNQGSGVPDRFSGSGSGTDFTLTISSLQAEDVAVYFCQQSKEVPWTFGQGTKLEIK", "Kd": 9.57, "koff": 0.000477, "kon": "4.98e+07"}
{"binder": "10D5-2-3 antibody-humanized antibody HV7bLV2 (antibody, V domains shown, Expressed from pKANTEX93) VH: EVQLVESRGGLVQPGGSMRLSCAASGFTFSNYWMNWVRQAPGKGLEWVAHIRLKSDNYATHYAESVRGRFTISRDDSKNSVYLQMNSLKTEDTGVYYCTGGSNYVFAFWGQGTLVTVSS VL: DIVMTQSPDSLAVSLGERATINCRASESVDNYGISFMNWFQQKPGQPPKLLIYAASNQGSGVPDRFSGSGSGTDFTLTISSLQAEDVAVYFCQQSKEVPWTFGQGTKLEIK", "Kd": 4.91, "koff": 0.000307, "kon": "6.25e+07"}
{"binder": "10D5-2-3 antibody-humanized antibody HV9LV0 (antibody, V domains shown, Expressed from pKANTEX93) VH: EVQLVESRGGLVQPGGSMRLSCAASGFTFSNYWMNWVRQAPGKGLEWVAHIRLKSDNYATHYAESVRGRFTISRDDSKSSVYLQMNSLKTEDTGIYYCTGGSNYVFAFWGQGTLVTVSS VL: DIVMTQSPDSLAVSLGERATINCRASESVDNYGISFMNWYQQKPGQPPKLLIYAASNQGSGVPDRFSGSGSGTDFTLTISSLQAEDVAVYYCQQSKEVPWTFGQGTKLEIK", "Kd": 6.45, "koff": 0.000859, "kon": "1.33e+08"}
{"binder": "10D5-2-3 antibody-humanized antibody HV9LV2 (antibody, V domains shown, Expressed from pKANTEX93) VH: EVQLVESRGGLVQPGGSMRLSCAASGFTFSNYWMNWVRQAPGKGLEWVAHIRLKSDNYATHYAESVRGRFTISRDDSKSSVYLQMNSLKTEDTGIYYCTGGSNYVFAFWGQGTLVTVSS VL: DIVMTQSPDSLAVSLGERATINCRASESVDNYGISFMNWFQQKPGQPPKLLIYAASNQGSGVPDRFSGSGSGTDFTLTISSLQAEDVAVYFCQQSKEVPWTFGQGTKLEIK", "Kd": 3.89, "koff": 0.000347, "kon": "8.91e+07"}
{"binder": "10D5-2-3 antibody-humanized antibody HV9LV3 (antibody, V domains shown, Expressed from pKANTEX93) VH: EVQLVESRGGLVQPGGSMRLSCAASGFTFSNYWMNWVRQAPGKGLEWVAHIRLKSDNYATHYAESVRGRFTISRDDSKSSVYLQMNSLKTEDTGIYYCTGGSNYVFAFWGQGTLVTVSS VL: DIVMTQSPDSLAVSLGERATINCRASESVDNYGISFMNWFQQKPGQPPKLLIYAASNQGSGVPDRFSGSGSGTDFTLTISPLQAEDVAVYFCQQSKEVPWTFGQGTKLEIK", "Kd": 3.52, "koff": 0.000279, "kon": "7.91e+07"}
{"binder": "10D5-2-3 antibody-humanized antibody HV9LV4 (antibody, V domains shown, Expressed from pKANTEX93) VH: EVQLVESRGGLVQPGGSMRLSCAASGFTFSNYWMNWVRQAPGKGLEWVAHIRLKSDNYATHYAESVRGRFTISRDDSKSSVYLQMNSLKTEDTGIYYCTGGSNYVFAFWGQGTLVTVSS VL: DIVLTQSPDSLAVSLGERATINCRASESVDNYGISFMNWYQQKPGQPPKLLIYAASNQGSGVPDRFSGSGSGTDFTLTISPMQAEDVAMYYCQQSKEVPWTFGQGTKLEIK", "Kd": 6.38, "koff": 0.000739, "kon": "1.16e+08"}
{"binder": "10D5-2-3 antibody-humanized antibody HV9LV6 (antibody, V domains shown, Expressed from pKANTEX93) VH: EVQLVESRGGLVQPGGSMRLSCAASGFTFSNYWMNWVRQAPGKGLEWVAHIRLKSDNYATHYAESVRGRFTISRDDSKSSVYLQMNSLKTEDTGIYYCTGGSNYVFAFWGQGTLVTVSS VL: not shown", "Kd": 5.13, "koff": 0.000325, "kon": "6.34e+07"}
{"binder": "10D5-2-3 chimeric antibody (c10D5-2-3 antibody) (antibody, V domains shown, Human chimeric antibody; The V regions were cloned into the humanized antibody expression vector pKANTEX93) VH: EVKLEESRGGLVQPGGSMKLSCVASGFTFSNYWMNWVRQSPEKGLEWVAHIRLKSDNYATHYAESVRGRFTISRDDSKSSVFLQMNNLRAEDTGIYYCTGGSNYVFAFWGQGTLVTVSA VL: not shown", "Kd": 4.52, "koff": 0.00024, "kon": "5.32e+07"}
